From publication PMC4520770

Experiments:
Assay in all cases: fluorescence polarisation
BL6-22_Y4eK = biological target: BL6-22_Y4eK
Bim_A2eT = Bim_A2eT (UniProt O43521)
Bim_A2eT_E2gG = Bim_A2eT_E2gG (UniProt O43521)
KL6-7_D3fA = biological target: KL6-7_D3fA
KL6-7_Y4eK = biological target: KL6-7_Y4eK
Bim_R3bS = Bim_R3bS (UniProt O43521)
[1] = biological target: Bim BH3 peptide (23 residues, fluoresceinated) (UniProt O43521)

Sequence of Bfl-1 (human), c-myc-tagged (Q16548 whole entry): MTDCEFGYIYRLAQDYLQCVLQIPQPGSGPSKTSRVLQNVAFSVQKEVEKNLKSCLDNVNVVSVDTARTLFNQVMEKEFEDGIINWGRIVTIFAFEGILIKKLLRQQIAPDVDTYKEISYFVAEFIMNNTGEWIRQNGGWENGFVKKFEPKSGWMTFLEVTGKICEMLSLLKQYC
Sequence of Bcl-w (human), c-myc-tagged (Q92843 whole entry): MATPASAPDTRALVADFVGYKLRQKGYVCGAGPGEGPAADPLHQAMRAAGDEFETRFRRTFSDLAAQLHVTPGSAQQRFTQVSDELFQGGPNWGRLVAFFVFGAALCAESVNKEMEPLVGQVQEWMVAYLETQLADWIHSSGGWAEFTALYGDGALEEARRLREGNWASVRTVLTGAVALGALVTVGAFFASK

Substance: BHRF1 (Epstein-Barr virus Bcl-2 homolog), c-myc-tagged (from UniProt P03182 1-191) (natural protein)
- Kd (BL6-22_Y4eK): 30 nM
- Kd (Bim_A2eT): 64 nM
- Kd (Bim_A2eT_E2gG): > 1000 nM
- Kd (KL6-7_D3fA): > 1000 nM
- Kd (KL6-7_Y4eK): > 1000 nM

Substance: Bcl-2 (human), c-myc-tagged (from UniProt P10415 1-239) (natural protein)
- Kd (Bim_A2eT): 44 nM
- Kd (Bim_A2eT_E2gG): 150 nM
- Kd (Bim_R3bS): 7.2 nM

Substance: Bcl-w (human), c-myc-tagged (from UniProt Q92843 1-193) (natural protein)
- Kd (Bim_A2eT): 40 nM
- Kd (Bim_A2eT_E2gG): 98 nM
- Kd (Bim_R3bS): 18 nM

Substance: Bcl-xL (human), c-myc-tagged (from UniProt Q07817-1 1-233) (natural protein)
- Kd (Bim_A2eT): 18 nM
- Kd (Bim_A2eT_E2gG): 42 nM
- Kd (Bim_R3bS): 3.8 nM

Substance: Bfl-1 (human), c-myc-tagged (from UniProt Q16548 1-175) (natural protein)
- Kd (Bim_A2eT): 32 nM
- Kd (Bim_A2eT_E2gG): 260 nM
- Kd (Bim_R3bS): 5.2 nM

Substance: KSBcl-2 (Kaposi's sarcoma-associated herpesvirus Bcl-2 homolog), c-myc-tagged (from UniProt P90504 1-175) (natural protein)
- Kd (Bim_A2eT): 1.8 nM
- Kd (Bim_A2eT_E2gG): 1.1 nM
- Kd (Bim_R3bS): 1.5 nM

Substance: M11 (murine gamma herpesvirus γHV68 Bcl-2 homolog), BAP- and His6-tagged (from UniProt P89884 1-171) (natural protein)
- Kd (Bim_A2eT): 78 nM
- Kd (Bim_A2eT_E2gG): 15 nM

Substance: Mcl-1 (human), c-myc-tagged (from UniProt Q07820 1-350) (natural protein)
- Kd [1]: < 1 nM
- Kd (Bim_A2eT): 0.62 nM
- Kd (Bim_A2eT_E2gG): 1.6 nM
- Kd (Bim_R3bS): < 1 nM
- Kd (KL6-7_D3fA): > 5000 nM
- Kd (KL6-7_Y4eK): 7800 nM
